Test results reported in article PMC11510446, “Establishing a Relationship between In Vitro Potency in Cell-Based Assays and Clinical Efficacious Concentrations for Approved GLP-1 Receptor Agonists” (Pharmaceutics, 2024).
Where two headings read alike, the source gives them in different places.

Assays:
[1] = human, cited from earlier work
From the text: Pharmacokinetic parameters representing rate of absorption (Ka), central clearance (CL), central volume (Vc), peripheral volume (Vp), distribution clearance (CLd), bioavailability (F) and lag- time (Tlag).

human GLP-1R = human GLP-1R (Homo sapiens, UniProt P43220); assay: cAMP accumulation assay (HTRF) in stable CHO cell line expressing human GLP-1R; type: cell-based
Sequence of human GLP-1R (P43220 24-463): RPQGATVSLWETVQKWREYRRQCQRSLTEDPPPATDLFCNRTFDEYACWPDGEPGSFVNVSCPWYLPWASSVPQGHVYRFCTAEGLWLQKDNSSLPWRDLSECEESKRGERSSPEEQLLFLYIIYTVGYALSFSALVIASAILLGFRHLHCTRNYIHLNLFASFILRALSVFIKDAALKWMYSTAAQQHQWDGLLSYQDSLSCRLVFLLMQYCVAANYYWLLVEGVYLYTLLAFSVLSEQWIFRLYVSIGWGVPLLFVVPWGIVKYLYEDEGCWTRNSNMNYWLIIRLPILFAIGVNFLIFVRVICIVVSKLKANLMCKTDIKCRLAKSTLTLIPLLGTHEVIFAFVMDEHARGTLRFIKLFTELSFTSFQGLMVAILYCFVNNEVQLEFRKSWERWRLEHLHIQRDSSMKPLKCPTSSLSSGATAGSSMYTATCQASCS
Procedure: Cell-based cyclic adenosine monophosphate (cAMP) accumulation assays were used to measure in vitro potency for GLP-1RAs in a stable Chinese hamster ovary (CHO) cell line expressing human GLP-1R (generated at AstraZeneca) or EndoC-βH1 cells endogenously expressing the GLP-1R (Endocells, Paris, France) as previously described. In brief, test GLP-1RA serial dilutions were prepared using an ECHO® acoustic liquid handler (Beckman, High Wycombe, UK) to obtain an 11-point dose–response curve in assay buffer (Hanks’ balanced salt solution (HBSS)) supplemented with 25 mM of HEPES and 0.5 mM of 3-isobutyl-1-methylxanthine (IBMX). […] The EndoC-βH1 cell assay was performed in an assay buffer containing 0.1% BSA.
Following compound and cell incubation for 30 min, the level of cAMP accumulation was determined using a cAMP dynamic 2 HTRF (homogeneous time-resolved fluorescence) kit (Cisbio, Codolet, France), following the two-step protocol according to the manufacturer’s guidelines. Treated cells were incubated with anti-cAMP cryptate and cAMP-d2 in lysis buffer at room temperature for 1 h and read on an Envision plate reader (PerkinElmer, Waltham, MA, USA).

Compound | lag-time Tlag ([1]; T2D, ref [7] (supplement references)) [h] | bioavailability F ([1]; fraction, dulaglutide value at 1.5 mg, ref [4] dulaglutide, [5] semaglutide oral, [6] semaglutide sc, [7] liraglutide (supplement references)) | central clearance CL ([1]; population PK, T2D (semaglutide oral: T2D, obesity), ref [4] dulaglutide, [5] semaglutide oral, [6] semaglutide sc, [7] liraglutide (supplement references)) [L/h] | bioavailability F ([1]; in vivo) | central clearance CL ([1]; in vivo) [L/h] | central volume Vc ([1]; in vivo) [L] | distribution clearance CLd ([1]; in vivo) [L/h] | peripheral volume Vp ([1]; in vivo) [L] | rate of absorption Ka ([1]; in vivo) [h⁻¹] | EC50 (human GLP-1R; read-out: EC50 (pM) 0.1%, NSB = BSA, shift assay Table S1A, 0.1% BSA) [pM] | EC50 (human GLP-1R; read-out: EC50 (pM) 0.1%, NSB = OA, shift assay Table S1B, 0.1% ovalbumin) [pM] | EC50 (human GLP-1R; read-out: EC50 (pM) 0.3%, NSB = BSA, shift assay Table S1A, 0.3% BSA) [pM] | EC50 (human GLP-1R; read-out: EC50 (pM) 0.3%, NSB = OA, shift assay Table S1B, 0.3% ovalbumin) [pM] | EC50 (human GLP-1R; read-out: EC50 (pM) 1%, NSB = BSA, shift assay Table S1A, 1% BSA) [pM] | EC50 (human GLP-1R; read-out: EC50 (pM) 1%, NSB = OA, shift assay Table S1B, 1% ovalbumin) [pM] | EC50 (human GLP-1R; read-out: EC50 (pM) 3%, NSB = BSA, shift assay Table S1A, 3% BSA) [pM] | EC50 (human GLP-1R; read-out: EC50 (pM) 3%, NSB = OA, shift assay Table S1B, 3% ovalbumin) [pM]
CCCCCCCCCCCCCCCC(=O)N[C@@H](CCC(=O)NCCCC[C@H](NC(=O)[C@H](C)NC(=O)[C@H](C)NC(=O)[C@H](CCC(N)=O)NC(=O)CNC(=O)[C@H](CCC(=O)O)NC(=O)[C@H](CC(C)C)NC(=O)[C@H](Cc1ccc(O)cc1)NC(=O)[C@H](CO)NC(=O)[C@H](CO)NC(=O)[C@@H](NC(=O)[C@H](CC(=O)O)NC(=O)[C@H](CO)NC(=O)[C@@H](NC(=O)[C@H](Cc1ccccc1)NC(=O)[C@@H](NC(=O)CNC(=O)[C@H](CCC(=O)O)NC(=O)[C@H](C)NC(=O)[C@@H](N)Cc1cnc[nH]1)[C@@H](C)O)[C@@H](C)O)C(C)C)C(=O)N[C@@H](CCC(=O)O)C(=O)N[C@@H](Cc1ccccc1)C(=O)N[C@H](C(=O)N[C@@H](C)C(=O)N[C@@H](Cc1c[nH]c2ccccc12)C(=O)N[C@@H](CC(C)C)C(=O)N[C@H](C(=O)N[C@@H](CCCNC(=N)N)C(=O)NCC(=O)N[C@@H](CCCNC(=N)N)C(=O)NCC(=O)O)C(C)C)[C@@H](C)CC)C(=O)O [Liraglutide] | 6 | 0.51 | 0.91 | – | – | – | – | – | – | – | – | – | – | – | – | – | –
Dulaglutide: a DPP-IV-protected GLP-1 analog covalently linked to a human IgG4-Fc heavy chain by a peptide linker | – | – | – | 0.47 | 0.0593 | 2.25 | 0.0201 | 3.75 | 0.00769 | 9.07 | 46.4 | 10.8 | 34.1 | 12.1 | 30.7 | 9.7 | 26
